Measurements as given in paper PMC9182292.

Molecular target: human 6His-14-3-3ζ (human) (UniProt P63104)
Experiment: pull-down; 6His-14-3-3ζ (0.1 mg) immobilised on Ni-NTA resin, 300 μL lysate of HEK293 cells expressing SNAP-TM reporters overnight at 4°C, 1% Triton X-100 in PBS with 25 mM imidazole; blot for the SNAP-tag, amount pulled down normalised to CT_(598-910), CT_(731-910) or untreated control; in some samples cells were treated before lysis with staurosporine (three hours) or more specific kinase inhibitors

UniProt P63104, sequence (P63104 whole entry): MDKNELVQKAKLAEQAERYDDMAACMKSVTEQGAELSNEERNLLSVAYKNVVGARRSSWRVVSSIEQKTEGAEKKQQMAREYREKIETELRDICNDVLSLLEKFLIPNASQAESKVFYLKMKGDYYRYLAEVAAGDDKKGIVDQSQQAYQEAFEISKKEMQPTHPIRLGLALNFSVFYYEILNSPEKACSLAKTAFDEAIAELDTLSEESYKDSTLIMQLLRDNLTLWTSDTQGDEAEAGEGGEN

| Substance | fold of reporter pulled down compared to CT (598-910) [fold] | further results |
| --- | --- | --- |
| SNAP-TM-HCN1CT reporter CT_(731-910) (from UniProt O88704 731-910) (domain or fragment) | 1.39 | fold of reporter pulled down from cells treated with the PKC inhibitor bisindolylmaleimide I compared to untreated control: 0.61 fold; fold of reporter pulled down from cells treated with the p38MAPK inhibitor PD 169316 compared to untreated control: 0.61 fold; fold of reporter pulled down from staurosporine-treated cells compared to untreated control: 0.26 fold |
| SNAP-TM-HCN1CT reporter CT_(731-910; S810A; S867A) (from UniProt O88704 731-910) (domain or fragment) | – | fold of reporter pulled down compared to CT (731-910): 0.33 fold |
| SNAP-TM-HCN1CT reporter CT_(731-910; Δ804–814; Δ861–871) (from UniProt O88704 731-910) (domain or fragment) | – | fold of reporter pulled down compared to CT (731-910): 0.26 fold |
| SNAP-TM-HCN1CT reporter lacking the distal 30 amino acid block with the TRIP8b-tripeptide binding site (from UniProt O88704 598-880) (domain or fragment) | 1.18 | – |
| SNAP-TM-HCN1CT reporter serially truncated to also lack the region containing peptide B (residues 790-820) (from UniProt O88704 598-790) (domain or fragment) | 0.23 | – |

Further lines, with some results ahead:

| fold of reporter pulled down compared to CT (598-910) [fold] | Substance | further results |
| --- | --- | --- |
| 0.61 | SNAP-TM-HCN1CT reporter serially truncated to lack the region containing peptide C (amino acids 850-880) (from UniProt O88704 598-850) (domain or fragment) | – |
| 0.2 | SNAP-TM-HCN1CT reporter with loss of residues 803-910 (from UniProt O88704 598-802) (domain or fragment) | – |
